US20120034161A1, “PRETARGETING KIT, METHOD AND AGENTS USED THEREIN” (KONINKLIJKE PHILIPS ELECTRONICS N.V., priority 2009, published 2012)

Test system: human colon cancer cell line LS174T
Conditions: mouse, in vivo

Substance: Rtx-TCO: TCO-modified rituximab for control in vivo experiments; lacks specificity for TAG72
- 125I-mAb in tumor: 6.3±1.2 % ID/g
